According to paper PMC13140710, “Small heat shock proteins HspB1 and HspB5 differentially alter the condensation and aggregation of the TDP‐43 low‐complexity domain” (Protein Science : A Publication of the Protein Society, 2026):

T1: HspB5^WT (wild-type human HspB5, αB‐crystallin) (human, UniProt P02511 1-175, Alexa Fluor 647 (NHS ester) label in TCCD and in the condensate partitioning experiment; unlabelled in the other assays)
T1 construct: Small heat shock protein HspB5 (αB-crystallin), human, wild type, full-length isoform; Vector pET3a or pET24a; source: E. coli BL21(DE3), purified
T1 sequence (looked up): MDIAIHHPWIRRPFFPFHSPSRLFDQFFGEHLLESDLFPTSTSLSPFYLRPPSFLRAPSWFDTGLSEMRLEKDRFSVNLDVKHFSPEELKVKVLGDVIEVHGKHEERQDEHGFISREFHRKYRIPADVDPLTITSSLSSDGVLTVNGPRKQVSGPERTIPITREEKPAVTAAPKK

B1: TDP‐43 low‐complexity domain (TDP‐43^LCD), amino acids 267–414 of TDP‐43 (domain or fragment, UniProt Q13148 267-414, looked up)
chain: NRQLERSGRFGGNPGGFGNQGGFGNSRGGGAGLGNNQGSNMGGGMNFGAFSINPAMMAAAQAALQSSWGMMGMLASQQNQSGPSGNNQNQGNMQREPNQAFGSGNNSYSGSNSGAAIGWGSASNAGSGSGFNGGFGSSMDSKSSGWGM
modifications: Cy5 (mono NHS ester) label in TCCD and, at 1% of the protein, in FRAP; unlabelled in the other assays
notes: source: E. coli BL21(DE3), purified from inclusion bodies (HisTrap in 8 M urea), buffer exchanged into 20 mM MES pH 6.0
B2: HspB5^ACD (core α‐crystallin domain of HspB5, residues 68–162) (domain or fragment, human, UniProt P02511 68-162, looked up)
chain: MRLEKDRFSVNLDVKHFSPEELKVKVLGDVIEVHGKHEERQDEHGFISREFHRKYRIPADVDPLTITSSLSSDGVLTVNGPRKQVSGPERTIPIT
modifications: Alexa Fluor 647 (NHS ester) label in TCCD and in the condensate partitioning experiment
notes: Small heat shock protein HspB5 (αB-crystallin), α-crystallin domain, residues 68-162; pET28 vector, gift of A. Laganowsky (Laganowsky et al., 2010); also called core domain of HspB5; source: E. coli BL21(DE3), purified

Legend:
[1] = target: T1, HspB5^WT (wild-type human HspB5, …); assay: two-color coincidence detection (TCCD), confocal single-molecule fluorescence; fluorescently labelled TDP-43^LCD and labelled sHsp, diluted to 200 nM in 20 mM MES pH 6.0, 25°C, both in solution; peaks found in both channels within 10 ms counted as coincident (hetero-oligomers); settings: both partners purified
[2] = target: B1; assay: as above; settings: both partners purified

| Binder | binding result [1] | binding result [2] |
| --- | --- | --- |
| B1 | binds |  |
| B2 |  | binds |
